By Kd is commonly meant the constant that tells how readily two partners part at equilibrium.

In the Immune Epitope Database (IEDB) one finds Kd data, which are given here for seven sequences.

One assay concerns the target HLA-A*01:01. As to the kind of experiment: IEDB peptide-MHC binding, purified MHC/direct/fluorescence; filed as Kd, often an IC50 or EC50 that approximates it; ≥ and ≤ were set here for values at or beyond the usual limits of such assays.
Assay [1] deals with HLA-A*02:01. Described as above.
The target of assay [2] is HLA-A*03:01. Described as above.
For the next assay, the target named is HLA-A*11:01. Described as above.
The target of assay [3] is HLA-A*24:03. Described as above.
The target of assay [4] is HLA-A*26:01. The assay is described as above.
Assay [5] deals with HLA-A*30:01. The assay is described as above.
Assay [6] concerns the target HLA-A*69:01. The description is as above.
For assay [7], the target named is HLA-B*07:02. Described as above.
The target in a further assay is HLA-B*08:01. The description is as above.
For assay [8], the target named is HLA-B*15:01. Described as above.
The target in the next assay is HLA-B*27:05. The description is as above.
For the next assay, the target named is HLA-B*40:01. The description is as above.
The next assay deals with HLA-B*58:01. The assay is described as above.
A further assay addresses HLA-A*31:01. Described as above.
Assay [9] addresses HLA-B*15:17. The description is as above.
In another assay the target is HLA-B*35:01. The assay is described as above. Conditions: source organism: Cryptosporidium parvum.
Another assay concerns the target HLA-B*44:02. The assay is described as above.
In assay [10] the target is HLA-B*57:01. The assay is described as above.
A further assay has as its target HLA-C*15:02. Described as above. Conditions: source organism: Cryptosporidium parvum.
The target in a further assay is HLA-A*23:01. Put plainly: IEDB peptide-MHC binding, purified MHC/competitive/fluorescence; filed as Kd, often an IC50 or EC50 that approximates it; ≥ and ≤ were set here for values at or beyond the usual limits of such assays.
Assay [11] addresses HLA-B*18:01. As to the kind of experiment: IEDB peptide-MHC binding, purified MHC/direct/fluorescence; filed as Kd, often an IC50 or EC50 that approximates it; ≥ and ≤ were set here for values at or beyond the usual limits of such assays. Conditions: source organism: Marburg virus - Musoke, Kenya, 1980.
For a further assay, the target named is HLA-A*26:02. Put plainly: IEDB peptide-MHC binding, purified MHC/competitive/fluorescence; filed as Kd, often an IC50 or EC50 that approximates it; ≥ and ≤ were set here for values at or beyond the usual limits of such assays. The note with it: source organism: Orthomarburgvirus marburgense.
Assay [12] deals with HLA-A*30:01. Described as above. The note with it: source organism: Orthomarburgvirus marburgense.
The target in assay [13] is HLA-B*07:02. The description is as above. The note with it: source organism: Orthomarburgvirus marburgense.
In assay [14] the target is HLA-B*15:01. The description is as above. Conditions: source organism: Orthomarburgvirus marburgense.
Assay [15] has as its target HLA-A*02:01. The assay is described as above. Conditions: source organism: Streptococcus pneumoniae TIGR4.
The target of assay [16] is HLA-A*03:01. Described as above. Conditions: source organism: Streptococcus pneumoniae TIGR4.
Assay [17] has as its target HLA-A*24:03. The description is as above. Conditions: source organism: Streptococcus pneumoniae TIGR4.
Assay [18] has as its target HLA-A*26:01. Described as above. Conditions: source organism: Streptococcus pneumoniae TIGR4.
The target in another assay is HLA-A*29:02. Described as above. Conditions: source organism: Streptococcus pneumoniae TIGR4.
In another assay the target is HLA-A*68:02. The description is as above. The note with it: source organism: Streptococcus pneumoniae TIGR4.
Assay [19] concerns the target HLA-A*69:01. The description is as above. The note with it: source organism: Streptococcus pneumoniae TIGR4.
In assay [20] the target is HLA-B*15:17. Described as above. The note with it: source organism: Streptococcus pneumoniae TIGR4.
In assay [21] the target is HLA-B*18:01. Described as above. Conditions: source organism: Streptococcus pneumoniae TIGR4.
The target in the next assay is HLA-B*27:03. The assay is described as above. Conditions: source organism: Streptococcus pneumoniae TIGR4.
For a further assay, the target named is HLA-B*46:01. The assay is described as above. Conditions: source organism: Streptococcus pneumoniae TIGR4.
The target of the next assay is HLA-B*51:01. Described as above. Conditions: source organism: Streptococcus pneumoniae TIGR4.
Assay [22] addresses HLA-B*57:01. Described as above. Conditions: source organism: Streptococcus pneumoniae TIGR4.
The mark [23] stands for this setting: source organism: Collimonas fungivorans.
[24] abbreviates: source organism: Cryptosporidium parvum.
Setting [25] is: source organism: Marburg virus - Musoke, Kenya, 1980.
The mark [26] stands for this setting: source organism: Vibrio vulnificus.

For AYSPFAFKK, the equilibrium dissociation constant (Kd) is at least 20 µM with HLA-A*01:01 (setting [23]); at least 20 µM with HLA-A*02:01 [1] (setting [23]); 2.28 µM with HLA-A*03:01 [2] (setting [23]); 0.168 µM in the assay with HLA-A*11:01 (setting [23]); 2.4 µM with HLA-A*24:03 [3] (setting [23]); at least 20 µM in the assay with HLA-A*26:01 [4] (setting [23]). Further, the Kd in the assay with HLA-A*30:01 [5] (setting [23]) was 0.00979 µM; with HLA-A*69:01 [6] (setting [23]) it was at least 20 µM; in the assay with HLA-B*07:02 [7] (setting [23]), at least 20 µM; with HLA-B*08:01 (setting [23]), at least 20 µM; with HLA-B*15:01 [8] (setting [23]) it was at least 20 µM; in the assay with HLA-B*27:05 (setting [23]), at least 20 µM. Also, the Kd with HLA-B*40:01 (setting [23]) and in the assay with HLA-B*58:01 (setting [23]) was at least 20 µM throughout.

On to ISCQIYNAL, for which the Kd with HLA-A*01:01 (setting [24]), with HLA-A*02:01 [1] (setting [24]), with HLA-A*03:01 [2] (setting [24]), with HLA-A*11:01 (setting [24]), with HLA-A*26:01 [4] (setting [24]) and in the assay with HLA-A*31:01 (setting [24]) was at least 20 µM throughout. Further, the Kd in the assay with HLA-A*69:01 [6] (setting [24]) was at least 20 µM; with HLA-B*07:02 [7] (setting [24]), at least 20 µM; with HLA-B*08:01 (setting [24]) it was at least 20 µM; with HLA-B*15:01 [8] (setting [24]), 0.27 µM; with HLA-B*15:17 [9] (setting [24]) it was 0.0826 µM; with HLA-B*27:05 (setting [24]) it was at least 20 µM. In addition, the Kd with HLA-B*35:01 is 0.169 µM; in the assay with HLA-B*40:01 (setting [24]), 0.192 µM; in the assay with HLA-B*44:02 (setting [24]), at least 20 µM; with HLA-B*57:01 [10] (setting [24]) it was at least 20 µM; in the assay with HLA-C*15:02, 0.385 µM.

Consider IWQWIHHEK, for which the Kd with HLA-A*23:01 (source organism: Salmonella enterica subsp. enterica serovar Typhi) turned out to be 0.178 µM.

On to QGKQHLHSL, for which the Kd in the assay with HLA-A*01:01 (setting [25]) was at least 20 µM; with HLA-A*11:01 (setting [25]), at least 20 µM; with HLA-A*31:01 (setting [25]) it was at least 20 µM; in the assay with HLA-A*69:01 [6] (setting [25]) it was at least 20 µM; with HLA-B*08:01 (setting [25]), 0.212 µM; with HLA-B*15:17 [9] (setting [25]), at least 20 µM. Also, the Kd with HLA-B*18:01 [11], with HLA-B*57:01 [10] (setting [25]), with HLA-B*58:01 (setting [25]), with HLA-A*26:02, with HLA-A*30:01 [12] and with HLA-B*07:02 [13] was at least 20 µM in each case. Moreover, in the assay with HLA-B*15:01 [14], the Kd stood at 4 µM.

Regarding QKDINTPGY, the Kd is at least 20 µM with HLA-A*01:01 (setting [26]); 15.5 µM with HLA-A*02:01 [1] (setting [26]); at least 20 µM with HLA-A*03:01 [2] (setting [26]); at least 20 µM with HLA-A*11:01 (setting [26]); at least 20 µM with HLA-A*26:01 [4] (setting [26]); 9.37 µM with HLA-A*30:01 [5] (setting [26]). Moreover, the Kd in the assay with HLA-A*31:01 (setting [26]), with HLA-A*69:01 [6] (setting [26]), with HLA-B*07:02 [7] (setting [26]), with HLA-B*08:01 (setting [26]), with HLA-B*27:05 (setting [26]) and with HLA-B*40:01 (setting [26]) was at least 20 µM in each case. Besides, the dissociation constant Kd with HLA-B*44:02 (setting [26]) and in the assay with HLA-B*58:01 (setting [26]) was at least 20 µM in each case.

For VPPTNSINK, the Kd with HLA-A*01:01 (setting [24]), with HLA-A*02:01 [1] (setting [24]), in the assay with HLA-A*03:01 [2] (setting [24]), with HLA-A*11:01 (setting [24]), with HLA-A*24:03 [3] (setting [24]) and in the assay with HLA-A*26:01 [4] (setting [24]) was at least 20 µM in each case. The Kd with HLA-A*31:01 (setting [24]) is at least 20 µM; with HLA-A*69:01 [6] (setting [24]) it was at least 20 µM; with HLA-B*08:01 (setting [24]) it was at least 20 µM; in the assay with HLA-B*15:01 [8] (setting [24]) it was at least 10 µM; with HLA-B*27:05 (setting [24]), at least 20 µM; with HLA-B*35:01, 15 µM. Moreover, the Kd with HLA-B*40:01 (setting [24]), in the assay with HLA-B*44:02 (setting [24]) and with HLA-B*58:01 (setting [24]) was at least 20 µM throughout.

In the case of YQVEGATRV, the Kd with HLA-A*02:01 [15] was 0.0017 µM; in the assay with HLA-A*03:01 [16], at least 20 µM; with HLA-A*23:01 (source organism: Streptococcus pneumoniae TIGR4), at least 20 µM; with HLA-A*24:03 [17], at least 20 µM; in the assay with HLA-A*26:01 [18] it was at least 20 µM; in the assay with HLA-A*29:02, at least 20 µM. Also, the Kd with HLA-A*68:02, with HLA-A*69:01 [19], with HLA-B*15:17 [20], with HLA-B*18:01 [21], in the assay with HLA-B*27:03 and with HLA-B*46:01 was at least 20 µM in each case. In addition, the Kd with HLA-B*51:01 and in the assay with HLA-B*57:01 [22] was at least 20 µM each time.
